# In the supplement of paper PMC9112550, “Optimization of the antimicrobial peptide Bac7 by deep mutational scanning” (BMC Biology, 2022):
# System: Escherichia coli TOP10
# Test: shrunken log2 fold change of peptide-encoding DNA abundance (4.5 h post-induction vs induction); higher = less antimicrobial activity (less host growth inhibition)
# Conditions: time post-induction: 4.5 h; library: site-saturation at positions 5, 18, 19, 20
# 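Further: peptides expressed intracellularly from a pBAD plasmid library in pooled LB shake-flask culture, induced with 0.3% L-arabinose, DNA abundance read by NGS, three biological replicates, DESeq2 with apeglm shrinkage.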
row,Sequence,shrunken log2 fold change
1,RRIRKRPPRLPRPRPRPKTHPRP,0.4
2,RRIRKRPPRLPRPRPRPKVSPRP,-0.0412
3,RRIRKRPPRLPRPRPRPKYQPRP,0.0989
4,RRIRKRPPRLPRPRPRPLAGPRP,0.286
5,RRIRKRPPRLPRPRPRPLALPRP,0.536
6,RRIRKRPPRLPRPRPRPLCGPRP,0.367
7,RRIRKRPPRLPRPRPRPLCLPRP,-0.126
8,RRIRKRPPRLPRPRPRPLFCPRP,0.177
9,RRIRKRPPRLPRPRPRPLFHPRP,0.0214
10,RRIRKRPPRLPRPRPRPLGWPRP,1.11
11,RRIRKRPPRLPRPRPRPLHEPRP,1.06
12,RRIRKRPPRLPRPRPRPLHHPRP,0.141
13,RRIRKRPPRLPRPRPRPLHVPRP,0.0446
14,RRIRKRPPRLPRPRPRPLISPRP,0.0452
15,RRIRKRPPRLPRPRPRPLKIPRP,2.15
16,RRIRKRPPRLPRPRPRPLKWPRP,0.18
17,RRIRKRPPRLPRPRPRPLLCPRP,0.347
18,RRIRKRPPRLPRPRPRPLMFPRP,0.0317
19,RRIRKRPPRLPRPRPRPLNGPRP,0.0417
20,RRIRKRPPRLPRPRPRPLPFPRP,-0.11
21,RRIRKRPPRLPRPRPRPLPQPRP,0.729
22,RRIRKRPPRLPRPRPRPLPTPRP,0.491

row,Sequence,shrunken log2 fold change
1,RRIRKRPPRLPRPRPRPLQEPRP,0.0634
2,RRIRKRPPRLPRPRPRPLSCPRP,0.0262
3,RRIRKRPPRLPRPRPRPLTWPRP,0.13
4,RRIRKRPPRLPRPRPRPLWLPRP,0.377
5,RRIRKRPPRLPRPRPRPLWSPRP,-0.014
6,RRIRKRPPRLPRPRPRPLWYPRP,-0.511
7,RRIRKRPPRLPRPRPRPLYHPRP,-0.364
8,RRIRKRPPRLPRPRPRPLYWPRP,0.149
9,RRIRKRPPRLPRPRPRPMEFPRP,-0.00102
10,RRIRKRPPRLPRPRPRPMFCPRP,0.0792
11,RRIRKRPPRLPRPRPRPMFMPRP,-0.116
12,RRIRKRPPRLPRPRPRPMFSPRP,-0.0859
13,RRIRKRPPRLPRPRPRPMGTPRP,0.335
14,RRIRKRPPRLPRPRPRPMHWPRP,0.136
15,RRIRKRPPRLPRPRPRPMHYPRP,-0.0252
16,RRIRKRPPRLPRPRPRPMIGPRP,0.0437
17,RRIRKRPPRLPRPRPRPMKNPRP,0.212
18,RRIRKRPPRLPRPRPRPMKYPRP,-0.152
19,RRIRKRPPRLPRPRPRPMLKPRP,0.954
20,RRIRKRPPRLPRPRPRPMMFPRP,-0.0431
21,RRIRKRPPRLPRPRPRPMMHPRP,0.0869
22,RRIRKRPPRLPRPRPRPMMVPRP,0.0826

row,Sequence,shrunken log2 fold change
1,RRIRKRPPRLPRPRPRPMNNPRP,-0.0152
2,RRIRKRPPRLPRPRPRPMPWPRP,0.321
3,RRIRKRPPRLPRPRPRPMSYPRP,-0.0167
4,RRIRKRPPRLPRPRPRPMWSPRP,0.123
5,RRIRKRPPRLPRPRPRPNDGPRP,-0.0887
6,RRIRKRPPRLPRPRPRPNDLPRP,-0.054
7,RRIRKRPPRLPRPRPRPNEFPRP,-0.042
8,RRIRKRPPRLPRPRPRPNEHPRP,0.448
9,RRIRKRPPRLPRPRPRPNFEPRP,0.0868
10,RRIRKRPPRLPRPRPRPNFNPRP,-0.0705
11,RRIRKRPPRLPRPRPRPNFTPRP,0.156
12,RRIRKRPPRLPRPRPRPNIEPRP,0.115
13,RRIRKRPPRLPRPRPRPNIHPRP,-0.112
14,RRIRKRPPRLPRPRPRPNIIPRP,0.00713
15,RRIRKRPPRLPRPRPRPNIKPRP,-0.284
16,RRIRKRPPRLPRPRPRPNISPRP,-0.102
17,RRIRKRPPRLPRPRPRPNKPPRP,-0.0304
18,RRIRKRPPRLPRPRPRPNLPPRP,0.118
19,RRIRKRPPRLPRPRPRPNLTPRP,-0.112
20,RRIRKRPPRLPRPRPRPNNGPRP,-0.324
21,RRIRKRPPRLPRPRPRPNPKPRP,0.143
22,RRIRKRPPRLPRPRPRPNPNPRP,0.179

row,Sequence,shrunken log2 fold change
1,RRIRKRPPRLPRPRPRPNPTPRP,0.249
2,RRIRKRPPRLPRPRPRPNQTPRP,0.00514
3,RRIRKRPPRLPRPRPRPNQYPRP,-0.0702
4,RRIRKRPPRLPRPRPRPNRFPRP,-0.0658
5,RRIRKRPPRLPRPRPRPNRPPRP,0.0563
6,RRIRKRPPRLPRPRPRPNVFPRP,0.154
7,RRIRKRPPRLPRPRPRPNWGPRP,0.308
8,RRIRKRPPRLPRPRPRPNYTPRP,-0.281
9,RRIRKRPPRLPRPRPRPPASPRP,0.424
10,RRIRKRPPRLPRPRPRPPAYPRP,0.417
11,RRIRKRPPRLPRPRPRPPDPPRP,0.889
12,RRIRKRPPRLPRPRPRPPFYPRP,0.229
13,RRIRKRPPRLPRPRPRPPGVPRP,0.548
14,RRIRKRPPRLPRPRPRPPIDPRP,0.185
15,RRIRKRPPRLPRPRPRPPKLPRP,0.658
16,RRIRKRPPRLPRPRPRPPKYPRP,-0.0749
17,RRIRKRPPRLPRPRPRPPLFPRP,0.321
18,RRIRKRPPRLPRPRPRPPMDPRP,0.587
19,RRIRKRPPRLPRPRPRPPMFPRP,0.269
20,RRIRKRPPRLPRPRPRPPMWPRP,0.297
21,RRIRKRPPRLPRPRPRPPNCPRP,0.0388
22,RRIRKRPPRLPRPRPRPPNHPRP,0.33

row,Sequence,shrunken log2 fold change
1,RRIRKRPPRLPRPRPRPPNPPRP,0.657
2,RRIRKRPPRLPRPRPRPPPYPRP,0.249
3,RRIRKRPPRLPRPRPRPPQHPRP,0.5
4,RRIRKRPPRLPRPRPRPPQTPRP,0.559
5,RRIRKRPPRLPRPRPRPPRKPRP,0.821
6,RRIRKRPPRLPRPRPRPPRPPRP,1.34
7,RRIRKRPPRLPRPRPRPPSEPRP,0.413
8,RRIRKRPPRLPRPRPRPPSRPRP,0.772
9,RRIRKRPPRLPRPRPRPPSSPRP,0.263
10,RRIRKRPPRLPRPRPRPPTVPRP,0.266
11,RRIRKRPPRLPRPRPRPPVKPRP,0.181
12,RRIRKRPPRLPRPRPRPPWRPRP,0.734
13,RRIRKRPPRLPRPRPRPPWYPRP,0.131
14,RRIRKRPPRLPRPRPRPQAEPRP,0.0754
15,RRIRKRPPRLPRPRPRPQCEPRP,-0.0553
16,RRIRKRPPRLPRPRPRPQCFPRP,-0.0263
17,RRIRKRPPRLPRPRPRPQCGPRP,0.0718
18,RRIRKRPPRLPRPRPRPQDCPRP,-0.104
19,RRIRKRPPRLPRPRPRPQDLPRP,-0.000826
20,RRIRKRPPRLPRPRPRPQEQPRP,0.225
21,RRIRKRPPRLPRPRPRPQETPRP,-0.0167
